{"source": "patent US20230049152A1", "about": "(Genentech, published 2023)", "binders": {"B1": {"name": "hu.Ab5.H13L1 (antibody, human IgG1, kappa)", "heavy": "not shown", "light": "DIQVTQSPSSLSASVGDRVTITCQASENIANALAWYQQKPGKPPKFLIYGASNLASGVPSRFSGSGSGTDFTFTISSLQPEDIATYYCQQAYYGNSFVEGTFGGGTKVEIKRTVAAPSVFIFPPSDEQLKSGTASVVCLLNNFYPREAKVQWKVDNALQSGNSQESVTEQDSKDSTYSLSSTLTLSKADYEKHKVYACEVTHQGLSSPVTKSFNRGEC", "notes": "fucosylated human IgG1; also called Ab5 variant"}, "B2": {"name": "hu.Ab4.H1L1 (antibody, human IgG1, kappa)", "heavy": "not shown", "light": "DYQMTQSPSSLSASVGDRVTITCQASQSISSYLSWYQQKPGKRPKLLIYKASTLASGVPSRFSGSGSGTDFTLTISSLQPEDFATYYCQQGYTSSNIDNIFGGGTKVEIKRTVAAPSVFIFPPSDEQLKSGTASVVCLLNNFYPREAKVQWKVDNALQSGNSQESVTEQDSKDSTYSLSSTLTLSKADYEKHKVYACEVTHQGLSSPVTKSFNRGEC", "notes": "also called hu.Ab4.H1Ll"}, "B3": {"name": "hu.Ab4.H12L3 (antibody, human IgG1, kappa)", "heavy": "not shown", "light": "B2 light with R43A", "notes": "fucosylated human IgG1; also called huCCR8-Ab4.H12L3.hIgG1; Ab4 variant"}}, "key": {"[1]": {"target": "T1, I20A", "T1 construct": "single alanine mutant of hCCR8; also called hCCR8 I20A", "T1 receptor chain": "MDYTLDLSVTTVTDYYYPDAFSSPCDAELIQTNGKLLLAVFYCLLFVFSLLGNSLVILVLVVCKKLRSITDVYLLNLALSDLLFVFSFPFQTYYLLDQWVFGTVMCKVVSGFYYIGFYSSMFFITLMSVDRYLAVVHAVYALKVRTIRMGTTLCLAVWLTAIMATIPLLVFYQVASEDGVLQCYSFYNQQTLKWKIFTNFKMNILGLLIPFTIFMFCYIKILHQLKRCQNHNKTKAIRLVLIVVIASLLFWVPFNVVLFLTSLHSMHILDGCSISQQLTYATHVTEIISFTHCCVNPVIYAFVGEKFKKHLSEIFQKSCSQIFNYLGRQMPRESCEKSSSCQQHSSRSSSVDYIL", "experiment": "flow cytometry, HEK293 transfected with hCCR8 I20A with C-terminal FLAG; sheet prints [huCCR8]=0.02 ug/ml"}, "[2]": {"target": "T2, P18A", "T2 construct": "single alanine mutant of hCCR8; also called hCCR8 P18A", "T2 receptor chain": "T1 receptor chain with P18A, A20I", "experiment": "flow cytometry, HEK293 transfected with hCCR8 P18A with C-terminal FLAG; sheet prints [huCCR8]=0.02 ug/ml"}, "[3]": {"target": "T3, F21A", "T3 construct": "single alanine mutant of hCCR8; also called hCCR8 F21A", "T3 receptor chain": "T1 receptor chain with A20I, F21A", "experiment": "flow cytometry, HEK293 transfected with hCCR8 F21A with C-terminal FLAG; sheet prints [huCCR8]=0.02 ug/ml", "protocol": "(§1) FIGS. 16A-16B depict the epitope maps for hu.Ab5.H13L1 (FIG. 16A) and hu.Ab4.H12L3 (FIG. 16B) mAbs.\n(§2) To epitope map fucosylated hu.Ab5.H13L1, the binding to alanine point mutations in human CCR8 was analyzed by flow cytometry."}, "[4]": {"target": "T4, D14A", "T4 construct": "single alanine mutant of hCCR8; also called hCCR8 D14A", "T4 receptor chain": "T1 receptor chain with D14A, A20I", "experiment": "flow cytometry, HEK293 transfected with hCCR8 D14A with C-terminal FLAG; sheet prints [huCCR8]=0.02 ug/ml"}, "[5]": {"target": "T5, T11A", "T5 construct": "single alanine mutant of hCCR8; also called hCCR8 T11A", "T5 receptor chain": "T1 receptor chain with T11A, A20I", "experiment": "flow cytometry, HEK293 transfected with hCCR8 T11A with C-terminal FLAG; sheet prints [huCCR8]=0.02 ug/ml", "protocol": "as §1, §2"}, "[6]": {"target": "human CCR8 (human, UniProt P51685 1-355)", "experiment": "cell-based or functional assay"}, "[7]": {"target": "T6, human CCR8.CCR5 chimera ECL2 (human, UniProt P51681 167-189)", "T6 construct": "domain: ECL2; Flanking CCR8 ranges derived from the stated replaced range 172-193; on transfected 293 cells; also called ECL2 chimera", "experiment": "flow cytometry, 293 cells transfected with the CCR8.CCR5 chimera ECL2 with C-terminal FLAG", "protocol": "(§3) To epitope map fucosylated hu.Ab4.H12L3, the binding to chimeric forms of human CCR8 was analyzed by flow cytometry."}, "[8]": {"target": "T7, human CCR8.CCR5 chimera ECL1 (human, UniProt P51681 86-99, limits assumed)", "T7 construct": "domain: ECL1; on transfected 293 cells; also called ECL1 chimera", "experiment": "flow cytometry, 293 cells transfected with the CCR8.CCR5 chimera ECL1 with C-terminal FLAG", "protocol": "as §3"}}, "note": "Residue numbers refer to the chain shown, from its start.", "data": [{"binder": "B1", "values": [{"measurement": "binding result", "setting": "[1]", "result": "binds"}, {"measurement": "binding result", "setting": "[2]", "result": "binds"}, {"measurement": "binding result", "setting": "[3]", "result": "binds"}, {"measurement": "binding result", "setting": "[4]", "result": "binds"}, {"measurement": "binding result", "setting": "[5]", "result": "binds"}]}, {"binder": "B2", "values": [{"measurement": "CCL1 blocking potency IC50, Ca2+ influx", "setting": "[6]", "result": 57.9, "unit": "nM"}]}, {"binder": "B3", "values": [{"measurement": "binding result", "setting": "[7]", "result": "no binding"}, {"measurement": "binding result", "setting": "[8]", "result": "no binding"}]}]}
